According to article PMC9638933:

Experiments:
[1] = target: Kumin (M. tuberculosis Ku without the extended C-terminus) (M. tuberculosis); test: BLI; Octet RED96, 37°C, 1000 rpm; biotinylated Ku (25 ug/ml) loaded on streptavidin biosensors; LigD, LIG or POL as analyte (12.5 ug/ml), 300 s association, 300 s dissociation; 1x kinetics buffer (0.1% BSA, 0.02% Tween-20, 0.05% sodium azide in PBS); grouped global fit
[2] = target: Kumin (M. tuberculosis Ku without the extended C-terminus) (M. tuberculosis); test: SEC-MALS; 50 uM protein in 50 mM HEPES pH 8.0, 1 mM EDTA, 200 mM NaCl; Superdex 200 Increase 10/300 GL; MiniDAWN and Optilab
[3] = target: the molecule itself; test: SEC-MALS; 50 uM protein; 50 mM HEPES pH 8.0, 1 mM EDTA, 200 mM NaCl; Superdex 200 Increase 10/300 GL
[4] = target: the molecule itself; test: SEC-MALS; 50 uM protein in 50 mM HEPES pH 8.0, 1 mM EDTA, 200 mM NaCl; Superdex 200 Increase 10/300 GL; MiniDAWN and Optilab
[5] = target: T1, LigD (wildtype), Mycobacterium tuberculosis (M. tuberculosis, UniProt P9WNV3 1-759); test: BLI; Octet RED96, 37°C, 1000 rpm; biotinylated Ku (25 ug/ml) loaded on streptavidin biosensors; LigD, LIG or POL as analyte (12.5 ug/ml), 300 s association, 300 s dissociation; 1x kinetics buffer (0.1% BSA, 0.02% Tween-20, 0.05% sodium azide in PBS); grouped global fit; settings: both partners purified
T1 construct: The His tag is TEV-cleavable; also called wildtype LigD
T1 sequence (P9WNV3 whole entry): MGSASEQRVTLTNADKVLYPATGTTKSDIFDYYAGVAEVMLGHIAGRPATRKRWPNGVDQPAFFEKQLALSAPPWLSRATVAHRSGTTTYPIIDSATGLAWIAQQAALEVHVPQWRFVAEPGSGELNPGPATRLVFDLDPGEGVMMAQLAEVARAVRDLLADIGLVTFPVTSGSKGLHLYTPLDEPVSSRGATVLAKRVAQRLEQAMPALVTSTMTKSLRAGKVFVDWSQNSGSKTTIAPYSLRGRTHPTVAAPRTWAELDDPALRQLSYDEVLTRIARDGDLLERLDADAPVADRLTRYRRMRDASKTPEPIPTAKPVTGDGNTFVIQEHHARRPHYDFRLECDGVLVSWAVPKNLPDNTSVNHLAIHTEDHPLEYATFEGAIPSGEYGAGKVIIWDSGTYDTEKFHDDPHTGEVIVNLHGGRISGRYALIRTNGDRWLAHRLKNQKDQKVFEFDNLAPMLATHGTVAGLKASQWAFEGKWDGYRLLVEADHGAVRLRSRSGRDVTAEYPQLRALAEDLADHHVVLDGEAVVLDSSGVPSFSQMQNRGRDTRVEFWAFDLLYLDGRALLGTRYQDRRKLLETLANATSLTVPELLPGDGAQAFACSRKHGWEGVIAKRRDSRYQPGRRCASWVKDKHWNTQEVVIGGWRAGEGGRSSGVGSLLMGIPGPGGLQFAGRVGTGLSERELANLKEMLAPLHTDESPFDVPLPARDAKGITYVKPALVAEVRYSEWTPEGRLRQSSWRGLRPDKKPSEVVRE

[6] = target: T2, KuWT (Mycobacterium tuberculosis, UniProt P9WKD9 1-273); test: EMSA; 5 mM Mg2+; EMSA: 50 mM Tris-HCl pH 8.0, 50 mM NaCl, 1 mM DTT, 5 mM MgCl2, 4% glycerol, 0.025 mg/ml BSA, 10 nM DNA, 30 C 20 min; FP: 10 mM Tris-HCl pH 8, 10 mM NaCl, 10% glycerol, 1 mM TCEP, 50 nM DNA, 30 C; ternary EMSA: 20 mM Tris-HCl pH 8.0, 5 mM MgCl2, 5% glycerol, 37 C; bridging: 20 mM Tris-HCl pH 7.5, 50 mM KCl, 5 mM EDTA, 1 mM DTT, 5% glycerol, 40 ug/ml BSA, room temperature; settings: protein: recombinant; tags: His (Ni-NTA purified; pMCSG7); chain copies: 2; label: 5' 6-FAM on strand 1; blunt
T2 sequence: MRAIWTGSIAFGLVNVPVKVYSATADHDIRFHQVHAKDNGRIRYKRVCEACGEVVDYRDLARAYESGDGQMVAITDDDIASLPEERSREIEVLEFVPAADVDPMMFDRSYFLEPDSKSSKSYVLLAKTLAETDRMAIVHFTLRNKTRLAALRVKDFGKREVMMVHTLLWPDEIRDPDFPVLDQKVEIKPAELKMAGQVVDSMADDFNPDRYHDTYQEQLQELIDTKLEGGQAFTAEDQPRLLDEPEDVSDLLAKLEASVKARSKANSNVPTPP

[7] = target: LigD (UniProt P9WNV3 1-759); test: fluorescence polarization; EMSA: 50 mM Tris-HCl pH 8.0, 50 mM NaCl, 1 mM DTT, 5 mM MgCl2, 4% glycerol, 0.025 mg/ml BSA, 10 nM DNA, 30 C 20 min; FP: 10 mM Tris-HCl pH 8, 10 mM NaCl, 10% glycerol, 1 mM TCEP, 50 nM DNA, 30 C; ternary EMSA: 20 mM Tris-HCl pH 8.0, 5 mM MgCl2, 5% glycerol, 37 C; bridging: 20 mM Tris-HCl pH 7.5, 50 mM KCl, 5 mM EDTA, 1 mM DTT, 5% glycerol, 40 ug/ml BSA, room temperature; settings: protein: recombinant; tags: His (Ni-NTA purified; pMCSG7); label: 5' 6-FAM on strand 1; blunt
Chain of LigD (P9WNV3 whole entry): as the sequence (P9WNV3 whole entry) above

[8] = target: T3, Kucore (Mycobacterium tuberculosis, UniProt P9WKD9 1-238); test: EMSA; 5 mM Mg2+; EMSA: 50 mM Tris-HCl pH 8.0, 50 mM NaCl, 1 mM DTT, 5 mM MgCl2, 4% glycerol, 0.025 mg/ml BSA, 10 nM DNA, 30 C 20 min; FP: 10 mM Tris-HCl pH 8, 10 mM NaCl, 10% glycerol, 1 mM TCEP, 50 nM DNA, 30 C; ternary EMSA: 20 mM Tris-HCl pH 8.0, 5 mM MgCl2, 5% glycerol, 37 C; bridging: 20 mM Tris-HCl pH 7.5, 50 mM KCl, 5 mM EDTA, 1 mM DTT, 5% glycerol, 40 ug/ml BSA, room temperature; settings: protein: recombinant; tags: His (Ni-NTA purified; pMCSG7); chain copies: 2; label: 5' 6-FAM on strand 1; blunt
T3 sequence: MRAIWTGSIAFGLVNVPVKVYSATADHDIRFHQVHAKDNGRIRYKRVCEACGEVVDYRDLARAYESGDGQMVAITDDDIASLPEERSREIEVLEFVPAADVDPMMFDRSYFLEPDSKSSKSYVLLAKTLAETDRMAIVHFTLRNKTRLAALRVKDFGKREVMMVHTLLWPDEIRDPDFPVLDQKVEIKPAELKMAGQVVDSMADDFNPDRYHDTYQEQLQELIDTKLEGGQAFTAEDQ

[9] = target: T4, Kumin (Mycobacterium tuberculosis, UniProt P9WKD9 1-259); test: as above; settings: protein: recombinant; tags: His (Ni-NTA purified; pMCSG7); chain copies: 2; label: 5' 6-FAM on strand 1; blunt
T4 sequence: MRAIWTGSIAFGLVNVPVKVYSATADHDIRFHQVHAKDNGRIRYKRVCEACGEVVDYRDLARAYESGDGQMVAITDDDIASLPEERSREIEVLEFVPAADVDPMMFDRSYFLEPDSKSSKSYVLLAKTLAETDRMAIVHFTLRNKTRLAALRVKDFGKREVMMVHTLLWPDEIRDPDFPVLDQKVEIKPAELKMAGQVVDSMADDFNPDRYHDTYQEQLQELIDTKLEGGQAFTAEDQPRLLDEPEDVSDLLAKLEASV

[10] = target: T3, Kucore; test: EMSA; EMSA: 50 mM Tris-HCl pH 8.0, 50 mM NaCl, 1 mM DTT, 5 mM MgCl2, 4% glycerol, 0.025 mg/ml BSA, 10 nM DNA, 30 C 20 min; FP: 10 mM Tris-HCl pH 8, 10 mM NaCl, 10% glycerol, 1 mM TCEP, 50 nM DNA, 30 C; ternary EMSA: 20 mM Tris-HCl pH 8.0, 5 mM MgCl2, 5% glycerol, 37 C; bridging: 20 mM Tris-HCl pH 7.5, 50 mM KCl, 5 mM EDTA, 1 mM DTT, 5% glycerol, 40 ug/ml BSA, room temperature; settings: protein: recombinant; tags: His (Ni-NTA purified; pMCSG7); chain copies: 2; label: 5' 6-FAM on strand 1; blunt
[11] = target: T4, Kumin; test: as above; settings: protein: recombinant; tags: His (Ni-NTA purified; pMCSG7); chain copies: 2; label: 5' 6-FAM on strand 1; blunt
[12] = target: T2, KuWT; test: as above; settings: protein: recombinant; tags: His (Ni-NTA purified; pMCSG7); chain copies: 2; label: 5' 6-FAM on strand 1; blunt

Molecule: LigD (wildtype), Mycobacterium tuberculosis (from UniProt P9WNV3 1-759) (enzyme)
- Kd [1]: 288 nM

Molecule: Kumin (M. tuberculosis Ku without the extended C-terminus) (domain or fragment)
- stoichiometry N [2]: 2

B1: Mycobacterium tuberculosis Kucore (entire C-terminus removed) (domain or fragment)
chain: MRAIWTGSIAFGLVNVPVKVYSATADHDIRFHQVHAKDNGRIRYKRVCEACGEVVDYRDLARAYESGDGQMVAITDDDIASLPEERSREIEVLEFVPAADVDPMMFDRSYFLEPDSKSSKSYVLLAKTLAETDRMAIVHFTLRNKTRLAALRVKDFGKREVMMVHTLLWPDEIRDPDFPVLDQKVEIKPAELKMAGQVVDSMADDFNPDRYHDTYQEQLQELIDTKLEGGQAFTAEDQ
modifications: in BLI only: biotin (NHS-LC-Biotin) on K19, K37, K45, K117, K120, K127, K154, K158, K184, K188, K193, K226
notes: Ku of M. tuberculosis, UniProt P9WKD9, residues 1-238 (core domain); The His tag is TEV-cleavable (pMCSG7) and no cleavage is described; The protein was not biotinylated for SEC-MALS; also called Ku core domain
- stoichiometry N [3]: 2

B2: Ku_(core) (M. tuberculosis Ku core domain, entire C-terminus removed) (domain or fragment)
chain: MRAIWTGSIAFGLVNVPVKVYSATADHDIRFHQVHAKDNGRIRYKRVCEACGEVVDYRDLARAYESGDGQMVAITDDDIASLPEERSREIEVLEFVPAADVDPMMFDRSYFLEPDSKSSKSYVLLAKTLAETDRMAIVHFTLRNKTRLAALRVKDFGKREVMMVHTLLWPDEIRDPDFPVLDQKVEIKPAELKMAGQVVDSMADDFNPDRYHDTYQEQLQELIDTKLEGGQAFTAEDQ
modifications: biotinylated at multiple sites with NHS-LC-Biotin for BLI only (sites listed in Supplementary Table S3)
- stoichiometry N [4]: 2
- Kd [5]: 200 nM

B3: 30 bp dsDNA (dsDNA)
DNA 1: CAGGAGGTGTAGGGAAGGGAATGTTGTCTG
DNA 2: CAGACAACATTCCCTTCCCTACACCTCCTG
- Kd [6]: 1180 ± 90 nM
- binding result [7]: binds

B4: 20 bp dsDNA (dsDNA)
DNA 1: CAGGAAGGGAATGTTGTCTG
DNA 2: CAGACAACATTCCCTTCCTG
- binding result [8]: binds
- binding result [9]: binds
- binding result [6]: binds
- binding result [7]: binds

B5: Mycobacterium tuberculosis Ku, wildtype (natural protein)
chain: MRAIWTGSIAFGLVNVPVKVYSATADHDIRFHQVHAKDNGRIRYKRVCEACGEVVDYRDLARAYESGDGQMVAITDDDIASLPEERSREIEVLEFVPAADVDPMMFDRSYFLEPDSKSSKSYVLLAKTLAETDRMAIVHFTLRNKTRLAALRVKDFGKREVMMVHTLLWPDEIRDPDFPVLDQKVEIKPAELKMAGQVVDSMADDFNPDRYHDTYQEQLQELIDTKLEGGQAFTAEDQPRLLDEPEDVSDLLAKLEASVKARSKANSNVPTPP
notes: The His tag is TEV-cleavable (pMCSG7) and no cleavage is described; also called KuWT
- stoichiometry N [3]: 2

B6: 15 bp dsDNA (dsDNA)
DNA 1: CAGGAAGGGAATGTT
DNA 2: AACATTCCCTTCCTG
- Kd [6]: 1630 ± 300 nM
- binding result [7]: binds

B7: Mycobacterium tuberculosis Kumin (extended C-terminus removed) (domain or fragment)
chain: MRAIWTGSIAFGLVNVPVKVYSATADHDIRFHQVHAKDNGRIRYKRVCEACGEVVDYRDLARAYESGDGQMVAITDDDIASLPEERSREIEVLEFVPAADVDPMMFDRSYFLEPDSKSSKSYVLLAKTLAETDRMAIVHFTLRNKTRLAALRVKDFGKREVMMVHTLLWPDEIRDPDFPVLDQKVEIKPAELKMAGQVVDSMADDFNPDRYHDTYQEQLQELIDTKLEGGQAFTAEDQPRLLDEPEDVSDLLAKLEASV
modifications: in BLI only: biotin (NHS-LC-Biotin) on K19, K37, K45, K117, K120, K127, K154, K184, K188, K193, K226, K254
notes: Ku of M. tuberculosis, UniProt P9WKD9, residues 1-259 (core domain and minimal C-terminal region); The His tag is TEV-cleavable (pMCSG7) and no cleavage is described; The protein was not biotinylated for SEC-MALS
- stoichiometry N [3]: 2

B8: 10 bp dsDNA (dsDNA)
DNA 1: CAGGAAGGTG
DNA 2: CACCTTCCTG
- binding result [10]: no binding
- binding result [11]: no binding
- binding result [12]: no binding
- Kd [7]: 1100 ± 70 nM
